In the supplement of paper PMC12783771:
± gives the standard deviation of the averaged measurements.

B1: library; numbered along this chain (parent)
chain: MNIQIGELAKRTACPVVTIRFYEQEGLLPPPGRSRGNFRLYGEEHVERLQFIRHCRSLDMPLSDVRTLLSYRKRPDQDCGEVNMLLDEHIRQVESRIGALLELKHHLVELREACSGARPAQSCGILQGLSDCVCDTRGTTAHPSD

How the values were obtained:
[1] = variants of: B1; assay: sfGFP reporter fluorescence (15 h) (µM FITC); higher = higher leak; conditions: library round: Round 0; ligand: none
Procedure, shortened: (§1)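 With 1 µM lead chloride, 30 µM zinc acetate or no metal present, 1 μL Echo-assembled reactions were incubated 15 hr at 30 °C. They contained BL21 Star (DE3) PANOx-SP extract, 30 μg/mL GamS, the pPbrR-sfGFP reporter plasmid and PCR-made linear PbrR templates Echo-normalized to 5 nM. Endpoint sfGFP fluorescence was read on a Synergy Neo2 at 485/528 nm against FITC standards in 50 mM sodium borate pH 8.5. Results are expressed as µM FITC.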

[2] = variants of: B1; assay: sfGFP reporter fluorescence (15 h) (µM FITC); higher = stronger transcriptional activation; conditions: library round: Round 0
Procedure, shortened: as §1

Variant | sfGFP reporter fluorescence [1] | sfGFP reporter fluorescence ([2]; ligand: 1 µM Pb) | sfGFP reporter fluorescence ([2]; ligand: 30 µM Zn)
L28V | 0.06175 ± 0.00026 | 0.0819 ± 0.0013 | 0.5124 ± 0.0026
L28W | 0.061 ± 0.0018 | 0.0821 ± 0.001 | 0.878 ± 0.019
L28Y | 0.0621 ± 0.00078 | 0.0627 ± 0.0015 | 0.12 ± 0.0052
P29A | 0.0607 ± 0.0044 | 0.0704 ± 0.0031 | 0.455 ± 0.039
P30A | 0.0623 ± 0.001 | 0.0748 ± 0.001 | 0.681 ± 0.087
P30C | 0.0599 ± 0.0023 | 0.0744 ± 0.0026 | 0.608 ± 0.025
P30D | 0.0658 ± 0.0029 | 0.08338 ± 0.00026 | 0.391 ± 0.088
P30E | 0.0621 ± 0.0013 | 0.08594 ± 0.00078 | 0.808 ± 0.075
P30F | 0.0603 ± 0.0018 | 0.0759 ± 0.001 | 0.489 ± 0.015
P30G | 0.05699 ± 0.00026 | 0.0665 ± 0.0023 | 0.436 ± 0.021
P30H | 0.0618 ± 0.00078 | 0.0808 ± 0.0023 | 0.659 ± 0.038
P30I | 0.0563 ± 0.0039 | 0.0869 ± 0.001 | 0.926 ± 0.2
P30K | 0.0632 ± 0.0029 | 0.0845 ± 0.0013 | 1.03 ± 0.023
P30L | 0.0614 ± 0.00078 | 0.0894 ± 0.0031 | 0.901 ± 0.0029
P30M | 0.06322 ± 0.00026 | 0.09162 ± 0.00052 | 0.859 ± 0.079
P30N | 0.0605 ± 0.0031 | 0.0753 ± 0.0049 | 0.628 ± 0.07
P30Q | 0.06395 ± 0.00026 | 0.0925 ± 0.0039 | 1.19 ± 0.066
P30R | 0.06414 ± 0.00052 | 0.088 | 1.15 ± 0.039
P30S | 0.06249 ± 0.00026 | 0.0801 ± 0.0039 | 0.651 ± 0.14
P30T | 0.06395 ± 0.00026 | 0.0887 | 0.917 ± 0.17
P30V | 0.0619 ± 0.001 | 0.0924 ± 0.001 | 1 ± 0.0021
P30W | 0.0634 ± 0.0015 | 0.0722 ± 0.0031 | 0.33 ± 0.015
P30Y | 0.0616 ± 0.001 | 0.0771 ± 0.0049 | 0.612 ± 0.013

Variant | sfGFP reporter fluorescence [1] | sfGFP reporter fluorescence ([2]; ligand: 1 µM Pb) | sfGFP reporter fluorescence ([2]; ligand: 30 µM Zn)
P31A | 0.05736 ± 0.00026 | 0.0607 ± 0.0044 | 0.485 ± 0.04
G32A | 0.0614 ± 0.0013 | 0.0586 ± 0.0052 | 0.467 ± 0.086
R33A | 0.0614 ± 0.0023 | 0.0594 | 0.0625 ± 0.00078
R33C | 0.0592 ± 0.00078 | 0.0607 ± 0.0023 | 0.0612 ± 0.0021
R33D | 0.0651 ± 0.00078 | 0.06377 ± 0.00052 | 0.0652
R33E | 0.06157 ± 0.00052 | 0.06304 ± 0.00052 | 0.0715 ± 0.0031
R33F | 0.0599 ± 0.0018 | 0.061 ± 0.0029 | 0.0665 ± 0.0044
R33G | 0.0577 ± 0.00078 | 0.0575 ± 0.0015 | 0.0599 ± 0.0018
R33H | 0.0623 ± 0.00052 | 0.0607 ± 0.0029 | 0.0707
R33I | 0.05772 ± 0.00026 | 0.05662 ± 0.00026 | 0.06542 ± 0.00026
R33K | 0.064 ± 0.0013 | 0.0634 ± 0.0042 | 0.112 ± 0.0065
R33L | 0.0605 ± 0.001 | 0.06175 ± 0.00026 | 0.108 ± 0.0042
R33M | 0.0629 ± 0.0013 | 0.0625 ± 0.0013 | 0.0619 ± 0.0015
R33N | 0.0632 ± 0.00078 | 0.0817 ± 0.028 | 0.06084 ± 0.00052
R33P | 0.0607 ± 0.0013 | 0.05956 ± 0.00026 | 0.064 ± 0.00078
R33Q | 0.0623 ± 0.001 | 0.0612 ± 0.001 | 0.0711 ± 0.0026
R33S | 0.0623 ± 0.00052 | 0.0605 ± 0.0031 | 0.0656 ± 0.001
R33T | 0.0634 | 0.06267 ± 0.00052 | 0.06285 ± 0.00026
R33V | 0.0607 ± 0.00078 | 0.05937 ± 0.00052 | 0.0696 ± 0.0021
R33W | 0.0636 ± 0.00078 | 0.0629 ± 0.0039 | 0.0718 ± 0.0021
R33Y | 0.0647 ± 0.0013 | 0.0618 ± 0.0013 | 0.0702 ± 0.0029
S34A | 0.0645 ± 0.001 | 0.0654 ± 0.00078 | 0.328 ± 0.018
R35A | 0.0658 ± 0.0029 | 0.08833 ± 0.00052 | 2.06 ± 0.079

Variant | sfGFP reporter fluorescence [1] | sfGFP reporter fluorescence ([2]; ligand: 1 µM Pb) | sfGFP reporter fluorescence ([2]; ligand: 30 µM Zn)
G36A | 0.0665 ± 0.00078 | 0.108 ± 0.0067 | 1.91 ± 0.2
G36C | 0.0618 ± 0.0018 | 0.0865 ± 0.0015 | 0.8609 ± 0.0015
G36D | 0.0616 | 0.0623 ± 0.0021 | 0.0695 ± 0.0018
G36E | 0.05992 ± 0.00026 | 0.0618 ± 0.0018 | 0.115 ± 0.0098
G36F | 0.0594 ± 0.001 | 0.0638 ± 0.0015 | 0.145 ± 0.0029
G36H | 0.0627 ± 0.0015 | 0.0793 ± 0.0018 | 0.772 ± 0.059
G36I | 0.05589 ± 0.00026 | 0.0579 ± 0.0015 | 0.117 ± 0.0044
G36K | 0.06304 ± 0.00052 | 0.09218 ± 0.00026 | 1.18 ± 0.099
G36L | 0.0588 ± 0.00078 | 0.0621 ± 0.00078 | 0.114 ± 0.011
G36M | 0.0612 | 0.0667 ± 0.0031 | 0.236 ± 0.028
G36N | 0.064 ± 0.0018 | 0.09 ± 0.006 | 1.41 ± 0.29
G36P | 0.05937 ± 0.00052 | 0.0583 ± 0.001 | 0.0627 ± 0.0036
G36Q | 0.0592 ± 0.0029 | 0.0676 ± 0.0023 | 0.3562 ± 0.0026
G36R | 0.0597 ± 0.0015 | 0.0656 ± 0.0026 | 0.247 ± 0.0088
G36S | 0.0706 ± 0.00078 | 0.119 ± 0.021 | 2.69 ± 0.06
G36T | 0.06469 ± 0.00026 | 0.08943 ± 0.00052 | 0.866 ± 0.074
G36V | 0.06011 ± 0.00052 | 0.0711 ± 0.00052 | 0.322 ± 0.011
G36W | 0.0579 ± 0.0057 | 0.0601 ± 0.0062 | 0.104 ± 0.0042
G36Y | 0.0605 ± 0.0026 | 0.0691 ± 0.0023 | 0.275 ± 0.031
N37A | 0.0634 ± 0.001 | 0.0729 ± 0.0042 | 0.481 ± 0.007
F38A | 0.064 ± 0.0039 | 0.0634 ± 0.0026 | 0.379 ± 0.015
R39A | 0.0651 ± 0.0018 | 0.0599 ± 0.0029 | 0.0678 ± 0.0021
R39C | 0.0599 ± 0.0013 | 0.061 ± 0.00078 | 0.057 ± 0.0029

Variant | sfGFP reporter fluorescence [1] | sfGFP reporter fluorescence ([2]; ligand: 1 µM Pb) | sfGFP reporter fluorescence ([2]; ligand: 30 µM Zn)
R39D | 0.0603 ± 0.0018 | 0.0608 ± 0.0026 | 0.0597 ± 0.0036
R39E | 0.0614 ± 0.0013 | 0.0634 | 0.066 ± 0.0015
R39F | 0.0597 ± 0.001 | 0.0588 ± 0.0013 | 0.0555 ± 0.0018
R39G | 0.0555 ± 0.00078 | 0.0563 ± 0.0023 | 0.0563 ± 0.0018
R39H | 0.0625 ± 0.0018 | 0.0652 ± 0.0031 | 0.0663 ± 0.0047
R39I | 0.0572 ± 0.0015 | 0.0566 ± 0.0018 | 0.0726 ± 0.0042
R39K | 0.0612 ± 0.0015 | 0.0623 ± 0.0036 | 0.14 ± 0.022
R39L | 0.0581 ± 0.0013 | 0.05901 ± 0.00052 | 0.055 ± 0.0036
R39M | 0.06139 ± 0.00026 | 0.0616 ± 0.0026 | 0.0583
R39N | 0.06102 ± 0.00026 | 0.0597 ± 0.0015 | 0.0605
R39P | 0.0581 ± 0.00078 | 0.0597 ± 0.001 | 0.0581 ± 0.0029
R39Q | 0.0612 ± 0.001 | 0.0599 ± 0.0018 | 0.0583 ± 0.001
R39S | 0.0607 ± 0.00078 | 0.0603 ± 0.0013 | 0.0592 ± 0.0023
R39T | 0.0616 ± 0.001 | 0.0608 | 0.06029 ± 0.00026
R39V | 0.0588 ± 0.00078 | 0.05882 ± 0.00026 | 0.05736 ± 0.00026
R39W | 0.05956 ± 0.00026 | 0.0599 ± 0.00078 | 0.06011 ± 0.00052
R39Y | 0.05992 ± 0.00026 | 0.0605 ± 0.0036 | 0.0608 ± 0.0047
L40A | 0.0608 ± 0.0031 | 0.0658 ± 0.0018 | 0.207 ± 0.0036
Y41A | 0.0616 ± 0.0042 | 0.0605 | 0.0651 ± 0.0013
Y41C | 0.0618 ± 0.0018 | 0.0592 ± 0.00078 | 0.0654 ± 0.0018
